This experiment concerns the target extracellular domain of human GPVI (human) (UniProt Q9HCN6). Kind of experiment: SPR (Biacore 3000), human GPVI immobilised by amine coupling, Fab as analyte. (In SPR one partner is held on a chip, and binding of the other changes the refractive index at the surface.)

B1: humanized anti-GPVI Fab VL1/VH1 (Fab, V domains shown)
VH: QVQLQESGPGLVAPSQSLSITCTVSGFSLTGYGVNWVRQPPSRGLEWLGMIWGDGSTDYQSTLKSRLSISKDTSKSQVFLKMNSLTTDDTARYYCARDLPMDYWGQGTSVTVSS
VL: DIQMTQSPSSLSASVGGRVTITCKASQDINKYIAWYQHKPGKGPSLLIHYTSTLQPGVPSRFSGSGSGRDYSFSISNLQPEDIATYYCLQYANLLTFGGGTKLEIKR
One may read the Kd as the equilibrium constant for the complex coming apart. The low end stands for tighter binding, the high end for weaker binding. What is called koff is the rate constant with which the complex falls apart. Lower therefore signals slow dissociation. In general, kon refers to the rate constant with which the complex forms. The molecule B1 yielded a Kd of 0.4 nM, a koff of 4e-05 s⁻¹ and a kon of 111000 M⁻¹ s⁻¹.

B2: humanized anti-GPVI Fab VL1/VH5 (Fab, V domains shown)
VH: QVQLQESGPGLVAPSQSLSITCTVSGFSLTGYGVNWVRQPPSRGLEWLGMIWGDGSTDYQSTLKSRLSISKDNSKSQVFLKMNSLTTDDTARYYCARDLPMDEWGQGTSVTVSS
VL: DIQMTQSPSSLSASVGGRVTITCKASQDINKYIAWYQHKPGKGPSLLIHYTSTLQPGVPSRFSGSGSGRDYSFSISNLQPEDIATYYCLQYANLLTFGGGTKLEIKR
For B2, the Kd came out at 0.4 nM, the koff was 3e-05 s⁻¹ and the kon stood at 81000 M⁻¹ s⁻¹.

B3: humanized anti-GPVI Fab VL1/VH2 (Fab, V domains shown)
VH: QVQLQESGPGLVAPSQSLSITCTVSGFSLTGYGVNWVRQPPSRGLEWLGMIWGDGSTDYQSTLKSRLSISKDNSKSQVFLKMNSLTTDDTARYYCARDLPMDYWGQGTSVTVSS
VL: DIQMTQSPSSLSASVGGRVTITCKASQDINKYIAWYQHKPGKGPSLLIHYTSTLQPGVPSRFSGSGSGRDYSFSISNLQPEDIATYYCLQYANLLTFGGGTKLEIKR
In turn, B3 gave a Kd of 0.2 nM, a koff of 3e-05 s⁻¹ and a kon of 113000 M⁻¹ s⁻¹.

B4: humanized anti-GPVI Fab VL1/VH4 (Fab, V domains shown)
VH: QVQLQESGPGLVAPSQSLSITCTVSGFSLTYYGVNWVRQPPSRGLEWLGMIWGDGSTDYQSTLKSRLSISKDNSKSQVFLKMNSLTTDDTARYYCARDLPMDYWGQGTSVTVSS
VL: DIQMTQSPSSLSASVGGRVTITCKASQDINKYIAWYQHKPGKGPSLLIHYTSTLQPGVPSRFSGSGSGRDYSFSISNLQPEDIATYYCLQYANLLTFGGGTKLEIKR
B4: the Kd was determined as 0.2 nM, the koff came out at 2e-05 s⁻¹ and the kon is 124000 M⁻¹ s⁻¹.

B5: humanized anti-GPVI Fab VL3/VH4 (Fab, V domains shown)
VH: QVQLQESGPGLVAPSQSLSITCTVSGFSLTYYGVNWVRQPPSRGLEWLGMIWGDGSTDYQSTLKSRLSISKDNSKSQVFLKMNSLTTDDTARYYCARDLPMDYWGQGTSVTVSS
VL: DIQMTQSPSSLSASVGGRVTITCKASQDINKYIAWYQHKPGKGPSLLIHYTSTLQPGVPSRFSGSGSGRDYSFSISNLQPEDIATYYCLQYALLLTFGGGTKLEIKR
Molecule B5 came in with a Kd of 0.3 nM, a koff of 4e-05 s⁻¹ and a kon of 151000 M⁻¹ s⁻¹.

B6: humanized anti-GPVI Fab VL3/VH2 (Fab, V domains shown)
VH: QVQLQESGPGLVAPSQSLSITCTVSGFSLTGYGVNWVRQPPSRGLEWLGMIWGDGSTDYQSTLKSRLSISKDNSKSQVFLKMNSLTTDDTARYYCARDLPMDYWGQGTSVTVSS
VL: DIQMTQSPSSLSASVGGRVTITCKASQDINKYIAWYQHKPGKGPSLLIHYTSTLQPGVPSRFSGSGSGRDYSFSISNLQPEDIATYYCLQYALLLTFGGGTKLEIKR
In the case of B6, the Kd turned out to be 0.2 nM, the koff turned out to be 3e-05 s⁻¹ and the kon amounted to 132000 M⁻¹ s⁻¹.

B7: humanized anti-GPVI Fab VL1/VH3 (Fab, V domains shown)
VH: EVQLLESGPGLVAPSGSLSITCTVSGFSLTGYGVNWVRQPPGKGLEWLGMIWGDGSTDYQSTLKSRLSISKDNSKSQVFLKMNSLRTDDTARYYCARDLPMDYWGLGTSVTVSS
VL: DIQMTQSPSSLSASVGGRVTITCKASQDINKYIAWYQHKPGKGPSLLIHYTSTLQPGVPSRFSGSGSGRDYSFSISNLQPEDIATYYCLQYANLLTFGGGTKLEIKR
With B7, the Kd worked out at 0.1 nM, the koff is 2e-05 s⁻¹ and the kon stood at 148000 M⁻¹ s⁻¹.

B8: humanized anti-GPVI Fab VL2/VH2 (Fab, V domains shown)
VH: QVQLQESGPGLVAPSQSLSITCTVSGFSLTGYGVNWVRQPPSRGLEWLGMIWGDGSTDYQSTLKSRLSISKDNSKSQVFLKMNSLTTDDTARYYCARDLPMDYWGQGTSVTVSS
VL: DIQMTQSPSSLSASVGGRVTITCKASQDINKYIAWYQHKPGKGPSLLIHYTSTLQPGVPSRFSGSGSGRDYSFSISNLQPEDIATYYCLQYAHLLTFGGGTKLEIKR
On to B8, for which the Kd was found to be 0.3 nM, the koff came to 3e-05 s⁻¹ and the kon stood at 108000 M⁻¹ s⁻¹.

The values are drawn from patent publication EP2402371A1.
